Laboratory results from article PMC3285612, “Simukunin from the Salivary Glands of the Black Fly Simulium vittatum Inhibits Enzymes That Regulate Clotting and Inflammatory Responses” (PLoS ONE, 2012).

Legend:
[1] = molecular target: T1, elastase (purified from human sputum) (human, UniProt P08246 30-267); assay: SPR; kinetics: rSimukunin immobilised on a CM5 chip by amine coupling (475.3 RU); FXa 3.1-50 nM or elastase 0.45-3.75 nM injected for 180 s at 30 µl/minute, 25°C; HBS-P (10 mM Hepes pH 7.4, 150 mM NaCl, 0.005% P20); global fit to a 1:1 Langmuir model; conditions: both partners purified
T1 construct: elastase, human, purified from sputum; the discussion speaks of it as a component of neutrophil azurophil granules (neutrophil elastase); source: bought: Molecular Innovations, purified from human sputum (SPR); bought: Elastin Products (enzyme assays)
T1 sequence (looked up): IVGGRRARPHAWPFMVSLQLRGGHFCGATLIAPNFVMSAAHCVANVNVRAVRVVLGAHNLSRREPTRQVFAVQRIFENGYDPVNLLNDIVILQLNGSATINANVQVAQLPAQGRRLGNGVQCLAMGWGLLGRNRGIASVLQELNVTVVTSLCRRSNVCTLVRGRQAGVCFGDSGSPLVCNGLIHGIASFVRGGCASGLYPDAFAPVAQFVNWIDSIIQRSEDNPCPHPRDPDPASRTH

[2] = molecular target: T1, elastase (purified from human sputum); assay: enzyme inhibition assay (Ki from IC50 by Cheng and Prusoff); rSimukunin titrated against a constant concentration of enzyme, pre-incubated 5 min, fluorogenic peptidyl substrate 250 µM, 30°C; Ki calculated from the IC50 and the substrate's Km; estimated; conditions: both partners purified
cathepsin G [3] = molecular target: T2, cathepsin G (human, UniProt P08311 21-244); assay: as above; conditions: both partners purified
T2 construct: cathepsin G, human; source: bought: Enzo Life Sciences
T2 sequence (looked up): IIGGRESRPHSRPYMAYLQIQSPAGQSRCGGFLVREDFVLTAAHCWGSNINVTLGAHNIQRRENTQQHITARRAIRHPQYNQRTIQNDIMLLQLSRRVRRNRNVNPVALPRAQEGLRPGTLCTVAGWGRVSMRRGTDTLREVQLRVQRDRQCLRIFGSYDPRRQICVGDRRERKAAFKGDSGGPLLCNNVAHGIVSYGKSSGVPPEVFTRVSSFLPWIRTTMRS

plasmin = plasmin (human); assay: cell-based or functional assay
[4] = molecular target: trypsin (sequencing grade) (human, UniProt P07477 16-247); assay: cell-based or functional assay
[5] = molecular target: activated coagulation factor XI (FXIa) (human); assay: cell-based or functional assay
skin β-tryptase = skin β-tryptase (human, UniProt Q15661 19-275); assay: cell-based or functional assay
[6] = molecular target: T1, elastase (purified from human sputum); assay: cell-based or functional assay
cathepsin G [7] = molecular target: T2, cathepsin G; assay: cell-based or functional assay
kallikrein = kallikrein (human, UniProt P03952 20-638); assay: cell-based or functional assay
kallikrein, sequence (P03952 20-638): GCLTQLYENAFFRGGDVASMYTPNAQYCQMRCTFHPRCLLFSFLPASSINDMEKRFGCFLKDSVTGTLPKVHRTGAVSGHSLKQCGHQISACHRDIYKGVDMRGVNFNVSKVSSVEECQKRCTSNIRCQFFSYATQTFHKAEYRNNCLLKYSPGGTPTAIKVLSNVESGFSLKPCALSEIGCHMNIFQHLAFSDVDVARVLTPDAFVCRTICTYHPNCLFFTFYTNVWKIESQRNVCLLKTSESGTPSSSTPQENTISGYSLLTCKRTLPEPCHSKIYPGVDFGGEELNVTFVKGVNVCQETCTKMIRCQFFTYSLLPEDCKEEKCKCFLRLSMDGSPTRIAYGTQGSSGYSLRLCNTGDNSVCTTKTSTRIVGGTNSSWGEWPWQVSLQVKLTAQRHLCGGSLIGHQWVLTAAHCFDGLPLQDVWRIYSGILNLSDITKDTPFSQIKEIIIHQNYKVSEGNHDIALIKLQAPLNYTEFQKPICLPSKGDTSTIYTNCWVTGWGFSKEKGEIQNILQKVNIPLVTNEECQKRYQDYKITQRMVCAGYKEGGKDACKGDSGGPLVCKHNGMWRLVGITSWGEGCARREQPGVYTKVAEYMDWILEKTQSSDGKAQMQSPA

plasmin (human), sequence (P00747 20-580, chain 1 of 2): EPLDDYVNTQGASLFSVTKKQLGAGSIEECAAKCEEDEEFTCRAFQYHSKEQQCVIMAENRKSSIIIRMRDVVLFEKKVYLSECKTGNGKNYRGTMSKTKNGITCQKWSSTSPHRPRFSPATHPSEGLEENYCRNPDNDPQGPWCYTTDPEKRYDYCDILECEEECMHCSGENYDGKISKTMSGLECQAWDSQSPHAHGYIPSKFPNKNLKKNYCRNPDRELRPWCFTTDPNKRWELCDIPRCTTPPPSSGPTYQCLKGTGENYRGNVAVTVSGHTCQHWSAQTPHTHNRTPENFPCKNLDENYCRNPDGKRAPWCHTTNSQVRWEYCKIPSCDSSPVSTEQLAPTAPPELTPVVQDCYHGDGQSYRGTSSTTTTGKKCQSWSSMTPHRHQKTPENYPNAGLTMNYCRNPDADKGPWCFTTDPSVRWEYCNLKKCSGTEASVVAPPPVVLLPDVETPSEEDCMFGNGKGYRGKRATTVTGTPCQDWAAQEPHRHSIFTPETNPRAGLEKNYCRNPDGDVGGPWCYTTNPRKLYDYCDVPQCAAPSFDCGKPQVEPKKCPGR
plasmin (human), sequence (P00747 581-810, chain 2 of 2): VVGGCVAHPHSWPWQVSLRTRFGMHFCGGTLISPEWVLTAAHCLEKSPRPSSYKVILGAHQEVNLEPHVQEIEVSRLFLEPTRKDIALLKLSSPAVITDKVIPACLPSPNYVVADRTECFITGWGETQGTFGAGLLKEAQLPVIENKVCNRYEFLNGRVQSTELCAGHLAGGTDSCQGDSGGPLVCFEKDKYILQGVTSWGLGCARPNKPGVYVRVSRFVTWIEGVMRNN
skin β-tryptase, sequence (Q15661 19-275): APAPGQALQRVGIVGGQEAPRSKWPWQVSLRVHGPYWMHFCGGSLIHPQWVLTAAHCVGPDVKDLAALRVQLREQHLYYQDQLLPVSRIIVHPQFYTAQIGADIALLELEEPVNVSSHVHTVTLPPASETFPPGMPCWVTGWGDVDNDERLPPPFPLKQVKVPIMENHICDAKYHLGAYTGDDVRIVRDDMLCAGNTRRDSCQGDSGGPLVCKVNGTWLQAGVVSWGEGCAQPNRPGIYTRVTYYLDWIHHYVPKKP
activated coagulation factor XI (FXIa) (human), sequence (chain, as listed by the source, chain 1 of 2): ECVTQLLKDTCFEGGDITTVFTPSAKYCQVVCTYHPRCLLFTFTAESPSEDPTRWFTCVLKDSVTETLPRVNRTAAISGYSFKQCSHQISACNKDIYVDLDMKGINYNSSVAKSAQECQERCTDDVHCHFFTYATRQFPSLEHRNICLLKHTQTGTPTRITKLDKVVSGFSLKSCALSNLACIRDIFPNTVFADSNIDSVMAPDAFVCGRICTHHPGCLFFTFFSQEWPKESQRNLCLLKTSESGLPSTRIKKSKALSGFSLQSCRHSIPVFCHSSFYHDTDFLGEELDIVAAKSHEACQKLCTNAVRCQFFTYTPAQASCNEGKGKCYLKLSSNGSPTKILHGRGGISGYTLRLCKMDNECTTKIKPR
activated coagulation factor XI (FXIa) (human), sequence (chain, as listed by the source, chain 2 of 2): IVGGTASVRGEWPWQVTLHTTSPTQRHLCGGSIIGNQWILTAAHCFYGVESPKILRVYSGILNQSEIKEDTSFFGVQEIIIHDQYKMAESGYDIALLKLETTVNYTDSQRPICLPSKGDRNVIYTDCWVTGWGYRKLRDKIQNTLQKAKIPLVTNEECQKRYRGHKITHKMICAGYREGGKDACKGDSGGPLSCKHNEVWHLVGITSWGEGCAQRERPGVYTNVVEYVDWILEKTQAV
trypsin (sequencing grade), sequence (P07477 16-247): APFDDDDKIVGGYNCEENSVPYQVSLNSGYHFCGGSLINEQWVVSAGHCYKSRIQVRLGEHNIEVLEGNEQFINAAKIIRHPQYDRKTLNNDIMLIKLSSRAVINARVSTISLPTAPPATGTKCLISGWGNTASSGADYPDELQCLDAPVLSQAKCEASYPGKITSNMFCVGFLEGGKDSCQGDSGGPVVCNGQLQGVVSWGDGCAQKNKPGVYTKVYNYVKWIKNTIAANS

B1: recombinant Simukunin (rSV-66) (natural protein, Simulium vittatum, UniProt B5M0W4 20-102, looked up)
chain: QENVCNLPVDEGVCRALFKRFYYEPATDSCKEFYYGGCEGNGNRFKSKKECILKCQKNKQLIKTRKRKPKKTTKPPIPIISLD
notes: SV-66 (Simukunin), Kunitz family salivary protein of the black fly Simulium vittatum; full-length ORF without signal peptide was cloned; numbers count on: the mature protein; pET-30 Ek/LIC vector; The purified protein ran as a doublet; also called rSimukunin; WT rSimukunin; source: E. coli BL21 (DE3), purified (Ni-NTA, RP-HPLC)
B1 was tested. Which Kd [1] did it give?
Its Kd is 0.4 nM.

And the koff [1]?
Its koff is 0.0173 s⁻¹.

And the kon [1]?
Its kon is 4.3e+07 M⁻¹ s⁻¹.

What about the Ki [2] of the same binder?
The Ki was ~0.65 nM.

And the Ki (cathepsin G [3])?
The Ki was 100 nM.

And the “IC50 of inhibition of enzyme activity (fluorogenic peptidyl substrate, 250 µM); plasmin 0.2 nM” value (plasmin)?
Its value is 32.2 nM.

What about the “IC50 of inhibition of enzyme activity (fluorogenic peptidyl substrate, 250 µM); trypsin 0.1 nM” value [4] of the same binder?
Its value is 379 nM.

What about the “IC50 of inhibition of enzyme activity (fluorogenic peptidyl substrate, 250 µM); Factor XIa 0.06 nM” value [5] of the same binder?
The value was 56.7 nM.

And the “IC50 of inhibition of enzyme activity (fluorogenic peptidyl substrate, 250 µM); β-tryptase 0.01 nM” value (skin β-tryptase)?
Its value is 66.8 nM.

What about the “IC50 of inhibition of enzyme activity (fluorogenic peptidyl substrate, 250 µM); elastase 0.18 nM” value [6] of the same binder?
Its value is 4.9 nM.

And the “IC50 of inhibition of enzyme activity (fluorogenic peptidyl substrate, 250 µM); cathepsin G 6.7 nM” value (cathepsin G [7])?
Its value is 217 nM.

What about the “IC50 of inhibition of enzyme activity (fluorogenic peptidyl substrate, 250 µM); kallikrein 0.08 nM” value (kallikrein) of the same binder?
Its value is 91.8 nM.
